Kd data for one molecule are collected here from paper doi:10.1101/2020.05.01.070730 (bioRxiv, 2020).

In the data set the target is T1, MutS (Pseudomonas aeruginosa, UniProt Q9HY08 1-855).
T1 sequence: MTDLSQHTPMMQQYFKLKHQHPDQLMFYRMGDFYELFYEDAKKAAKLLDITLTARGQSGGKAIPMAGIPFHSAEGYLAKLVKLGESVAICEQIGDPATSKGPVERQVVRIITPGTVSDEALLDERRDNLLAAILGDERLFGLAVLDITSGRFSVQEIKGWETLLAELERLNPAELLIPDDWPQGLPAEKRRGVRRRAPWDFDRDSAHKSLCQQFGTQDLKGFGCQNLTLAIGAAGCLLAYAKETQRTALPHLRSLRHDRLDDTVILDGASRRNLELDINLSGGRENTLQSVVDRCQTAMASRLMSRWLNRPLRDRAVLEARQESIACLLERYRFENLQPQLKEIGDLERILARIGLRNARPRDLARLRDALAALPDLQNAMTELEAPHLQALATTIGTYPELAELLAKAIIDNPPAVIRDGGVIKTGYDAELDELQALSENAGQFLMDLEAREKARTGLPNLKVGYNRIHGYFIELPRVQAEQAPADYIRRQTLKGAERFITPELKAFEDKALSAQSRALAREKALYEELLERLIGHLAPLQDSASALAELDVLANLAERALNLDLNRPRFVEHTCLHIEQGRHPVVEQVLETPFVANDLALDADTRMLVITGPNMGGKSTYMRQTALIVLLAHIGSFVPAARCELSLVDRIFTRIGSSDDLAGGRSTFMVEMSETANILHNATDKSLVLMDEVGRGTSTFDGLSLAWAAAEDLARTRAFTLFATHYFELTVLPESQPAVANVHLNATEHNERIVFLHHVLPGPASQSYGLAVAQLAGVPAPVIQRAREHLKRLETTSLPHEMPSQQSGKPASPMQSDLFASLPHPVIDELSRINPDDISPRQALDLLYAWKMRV
The experiment in a line: SPR.

B1: dsDNA (dsDNA)
DNA 1: ATGTGAATCAGTATGGTTACTATCTGCTGAAGGAAAT
DNA 2: ATTTCCTTCAGCAGATAGTAACCATACTGATTCACAT
As for B1, the Kd (as a rule, the concentration at which binding is half-saturated) was 1960 nM.
